The text below walks through data of US20240197877A1 (published 2024).

Where a chain is given by its changes, count along the chain named.

The experiment addresses T1, MYO1G (HA-2 SNP; MYO1G(M) variant) peptide on HLA-A*02:01 (human).
T1 peptide: YIGEVLVSM
Briefly: multimer staining.

B1: HA2-MJ13-SP43 (TCR, V domains shown)
Valpha: QKEVEQNSGPLSVPEGAIASLNCTYSDRGSQSFFWYRQYSGKSPELIMFIYSNGDKEDGRFTAQLNKASQYVSLLIRDSQPSDSATYLCAVKGAGYSTLTFGKGTMLLVSP
Vbeta: NAGVTQTPKFQVLKTGQSMTLQCAQDMNHEYMSWYRQDPGMGLRLIHYSVGAGITDQGEVPNGYNVSRSTTEDFPLRLLSAAPSQTSVYFCASSDGGALAYFGPGTRLTVL
B1: the binding result is reported as “no recognition”.

B2: HA2-MJ14-SP4 (TCR, V domains shown)
Valpha: B1 Valpha with K92R, G93R, A94S
Vbeta: NAGVTQTPKFQVLKTGQSMTLQCAQDMNHEYMSWYRQDPGMGLRLIHYSVGAGITDQGEVPNGYNVSRSTTEDFPLRLLSAAPSQTSVYFCASSLGAEAFFGQGTRLTVV
Turning to B2, the binding result is given as “no recognition”.
